{"source": "paper PMC9405056", "about": "“Functional Characterization of Arylalkylamine N-Acetyltransferase, a Pivotal Gene in Antioxidant Melatonin Biosynthesis from Chlamydomonas reinhardtii” (Antioxidants, 2022)", "proteins": {"B1": {"name": "CrAANAT (Chlamydomonas reinhardtii) (protein)", "chain": "MAEESLDASVQPLGSTVFFGPVQPEMLDRIHELEAASYPEDEAATYEKLKFRIENASNVFLVALSAEGDGEPKVVGFVCGTQTRASKLTHESMSTHDADGALLCIHSVVVDAALRRRGLATRMLRAYTAFVAATSPGLTGIRLLTKQNLIPLYEGAGFTLLGPSDVEHGADLWYECAMELEAEEEAEAAEA", "notes": "full length, 191 residues, codon-optimized synthetic gene; N-terminal GST fusion with C-terminal His6 (GST-CrAANAT-His6, pET60), tags kept"}}, "substrate": "NCCc1c[nH]c2ccc(O)cc12", "experiment": "HPLC with fluorescence detection of N-acetylserotonin; Lineweaver-Burk plot", "type": "biochemical, Chlamydomonas reinhardtii", "conditions": "acetyl-CoA as co-substrate (0.5 mM in the standard assay), 100 mM potassium phosphate, standard assay pH 8.8, 45 °C, 30 min, serotonin 50 to 2000 μM"}
{"protein": "B1", "values": [{"measurement": "Km", "result": 247, "unit": "µM"}]}
